molecular target: M1-linked tetra-ubiquitin (UniProt P0CG48 1-76; P0CG48 1-76; P0CG48 1-76; P0CG48 1-76); assay: SPR
Sequence (P0CG48 1-304, one chain of several): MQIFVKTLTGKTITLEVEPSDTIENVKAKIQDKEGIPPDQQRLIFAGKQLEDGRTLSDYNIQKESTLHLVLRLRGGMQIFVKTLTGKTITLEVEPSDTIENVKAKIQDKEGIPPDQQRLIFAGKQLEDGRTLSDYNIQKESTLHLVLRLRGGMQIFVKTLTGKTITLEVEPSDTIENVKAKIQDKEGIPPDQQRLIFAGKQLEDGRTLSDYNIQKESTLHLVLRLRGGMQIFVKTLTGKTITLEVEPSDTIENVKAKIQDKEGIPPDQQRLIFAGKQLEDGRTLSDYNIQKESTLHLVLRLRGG

Binder	Kd
GST-NEMO UBAN (aa 250-339), wild type (domain or fragment, mouse, UniProt O88522 250-339, looked up) GMQLEDLRQQLQQAEEALVAKQELIDKLKEEAEQHKIVMETVPVLKAQADIYKADFQAERHAREKLVEKKEYLQEQLEQLQREFNKLKVG	562 nM
GST-OPTN UBAN (aa 420-509), wild type (domain or fragment, human, UniProt Q96CV9 420-509, looked up) RAVLKELSEKLELAEKALASKQLQMDEMKQTIAKQEEDLETMTILRAQMEVYCSDFHAERAAREKIHEEKEQLALQLAVLLKENDAFEDG	916 nM

The remaining lines, values ahead:

Kd	Binder
362 nM	GST-NEMO UBAN (aa 250-339) A303E (domain or fragment, mouse, UniProt O88522 250-339, looked up) GMQLEDLRQQLQQAEEALVAKQELIDKLKEEAEQHKIVMETVPVLKAQADIYKEDFQAERHAREKLVEKKEYLQEQLEQLQREFNKLKVG
508 nM	GST-OPTN UBAN (aa 420-509) S473E (domain or fragment, human, UniProt Q96CV9 420-509, looked up) RAVLKELSEKLELAEKALASKQLQMDEMKQTIAKQEEDLETMTILRAQMEVYCEDFHAERAAREKIHEEKEQLALQLAVLLKENDAFEDG
972 nM	GST-ABIN-1 UBAN (aa 463-532), wild type (domain or fragment, mouse, UniProt Q9WUU8 463-532, looked up) LRKQELVTQNELLKQQVKIFEEDFQRERSDRERMNEEKEELKKQVEKLQAQVTLTNAQLKTLKEEEKAKE

Molecular target: the molecule itself
Assay: crystal structure

Binder	stoichiometry N
ABIN-1 UBAN (mouse, aa 463-532), GST tag cleaved (domain or fragment, UniProt Q9WUU8 463-532, looked up) LRKQELVTQNELLKQQVKIFEEDFQRERSDRERMNEEKEELKKQVEKLQAQVTLTNAQLKTLKEEEKAKE	2 chains in the oligomer
